{
  "source": "paper PMC7111185",
  "about": "(Biochemical and Biophysical Research Communications, 2004)",
  "binders": {"B1": {"name": "GST-HR2-38 (GST fusion of SARS-CoV spike HR2, amino acids 1149-1186) (domain or fragment)", "chain": "GDISGINASVVNIQKEIDRLNEVAKNLNESLIDLQELG"}},
  "biological_target": "30a-HR1 (His-tagged heptad repeat 1 region of SARS-CoV spike protein, amino acids 898-1005) (SARS-CoV, UniProt P59594 898-1005)",
  "experiment": "pull-down",
  "data": [
    {"binder": "B1", "values": [
      {"measurement": "binding result", "result": "binds"}
    ]}
  ]
}
